Reference: paper PMC3285612
Where two headings read alike, the source gives them in different places. One block for each substance: values may come before it.

Assays:
[1] = target: recombinant Simukunin (rSV-66) (Simulium vittatum) (UniProt B5M0W4); experiment: SPR; kinetics: rSimukunin immobilised on a CM5 chip by amine coupling (475.3 RU); FXa 3.1-50 nM or elastase 0.45-3.75 nM injected for 180 s at 30 µl/minute, 25°C; HBS-P (10 mM Hepes pH 7.4, 150 mM NaCl, 0.005% P20); global fit to a 1:1 Langmuir model
recombinant Simukunin (rSV-66) (Simulium vittatum), sequence (B5M0W4 20-102): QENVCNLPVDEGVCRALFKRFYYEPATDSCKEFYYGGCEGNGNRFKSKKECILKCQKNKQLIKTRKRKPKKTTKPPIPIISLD

thrombin [2] = target: thrombin (UniProt P00734); conditions: cited from earlier work
[3] = target: Factor X (FX) (Homo sapiens) (UniProt P00742); conditions: cited from earlier work
Factor X (FX) (Homo sapiens), sequence (P00742 41-179, chain 1 of 2): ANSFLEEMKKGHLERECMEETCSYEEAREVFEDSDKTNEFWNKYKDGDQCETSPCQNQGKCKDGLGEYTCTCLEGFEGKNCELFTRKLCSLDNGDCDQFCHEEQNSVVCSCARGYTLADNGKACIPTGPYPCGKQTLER
Factor X (FX) (Homo sapiens), sequence (P00742 183-488, chain 2 of 2): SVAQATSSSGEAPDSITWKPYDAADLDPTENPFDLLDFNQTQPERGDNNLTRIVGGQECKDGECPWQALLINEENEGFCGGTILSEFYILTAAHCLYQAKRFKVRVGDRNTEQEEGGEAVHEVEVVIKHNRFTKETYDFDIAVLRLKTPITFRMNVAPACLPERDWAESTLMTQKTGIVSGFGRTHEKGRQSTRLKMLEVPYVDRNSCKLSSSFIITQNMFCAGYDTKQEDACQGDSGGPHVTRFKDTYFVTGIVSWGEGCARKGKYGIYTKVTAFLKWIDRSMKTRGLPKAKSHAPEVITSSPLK

Factor X (Homo sapiens) = Factor X (Homo sapiens) (UniProt P00742); conditions: cited from earlier work
Factor X (Homo sapiens), sequence (P00742 41-179): as the sequence (P00742 41-179, chain 1 of 2) above

[4] = target: Factor Xa (FXa) (Homo sapiens) (UniProt P00742); conditions: cited from earlier work
Factor Xa (FXa) (Homo sapiens), sequence (P00742 41-179, chain 1 of 2): as above
Factor Xa (FXa) (Homo sapiens), sequence (P00742 235-488, chain 2 of 2): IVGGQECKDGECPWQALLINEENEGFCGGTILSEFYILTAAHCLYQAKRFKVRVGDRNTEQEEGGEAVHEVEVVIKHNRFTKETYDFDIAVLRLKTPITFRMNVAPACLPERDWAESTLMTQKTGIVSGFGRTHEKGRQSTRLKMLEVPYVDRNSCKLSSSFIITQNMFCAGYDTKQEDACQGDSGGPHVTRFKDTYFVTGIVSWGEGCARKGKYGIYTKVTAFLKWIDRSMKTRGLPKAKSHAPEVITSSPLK

Factor Xa (Homo sapiens) = Factor Xa (Homo sapiens) (UniProt P00742); conditions: cited from earlier work
Factor Xa (Homo sapiens), sequence (P00742 235-488): as the sequence (P00742 235-488, chain 2 of 2) above

thrombin [5] = target: thrombin (UniProt P00734); conditions: cited from earlier work; remark: listed apart in the source

ixolaris, sequence (Q964Q0 27-165): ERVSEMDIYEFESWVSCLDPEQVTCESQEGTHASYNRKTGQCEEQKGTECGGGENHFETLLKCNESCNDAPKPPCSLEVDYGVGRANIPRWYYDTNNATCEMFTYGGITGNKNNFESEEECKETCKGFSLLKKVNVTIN
amblin, sequence (Q5VJG2 16-166): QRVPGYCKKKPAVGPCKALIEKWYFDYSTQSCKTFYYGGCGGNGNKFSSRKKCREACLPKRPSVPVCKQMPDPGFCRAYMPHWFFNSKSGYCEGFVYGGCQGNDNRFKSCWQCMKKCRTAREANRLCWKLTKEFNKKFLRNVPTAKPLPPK
ornithodorin, sequence (P56409 whole entry): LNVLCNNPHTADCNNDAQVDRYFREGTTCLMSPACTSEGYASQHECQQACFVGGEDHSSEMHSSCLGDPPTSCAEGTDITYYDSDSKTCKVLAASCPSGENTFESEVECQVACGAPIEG

Kd [1]: 3.07 nM | koff [1]: 0.000303 s⁻¹ | kon [1]: 98700 M⁻¹ s⁻¹
Substance: activated coagulation factor X (FXa), human (enzyme)

Substance: amblin (from UniProt Q5VJG2)
Ki (thrombin [2]): 20 nM

Substance: ixolaris (from UniProt Q964Q0)
Kd [3]: 0.67 nM | Kd (Factor X (Homo sapiens)): 0.67 nM | Kd [4]: 0.25 nM | Kd (Factor Xa (Homo sapiens)): 0.25 nM

Substance: ornithodorin (from UniProt P56409)
Ki (thrombin [5]): 0.001 nM
